# Values joined by “and” are separate entries in the source; they are usually repeats but may differ in a detail not shown here. Equal values may be shown once. Numbered stars: 1 amine (or outer) side, 2 acyl side, 3 side chain; on linkers, the order of the positions; unused ones are H or OH. Bridge positions count the residues as written; N and C are the ends. Square brackets hold non-standard residues; d marks the D form. * marks the point of attachment. tMeBn(DOTA-PP) = 1,3,5-trimethylbenzylidene, two thioethers to Cys, third CH2 bound to one N of piperazine whose other N bears DOTA, O=C(O)CN1CCN(CC(=O)O)CCN(CC(=O)N2CCN(Cc3cc(C[*:1])cc(C[*:2])c3)CC2)CCN(CC(=O)O)CC1; TBMB(SCH2CH2NH-DOTA) = O=C(O)CN1CCN(CC(=O)O)CCN(CC(=O)NCCSCc2cc(C[*:1])cc(C[*:2])c2)CCN(CC(=O)O)CC1; 3MeBn = 3-Methylbenzylidene (m-xylylene thioether bridge from α,α′-dibromo-m-xylene); N4Ac = 6-Carboxy-1,4,8,11-tetraazaundecane, an N4-chelator, NCCNCC(CNCCN)C(=O)*; DOTA = O=C(O)CN1CCN(CC(=O)O)CCN(CC(=O)*)CCN(CC(=O)O)CC1; Oic = O=C(O)[C@@H]1C[C@@H]2CCCC[C@@H]2N1; mXylylene = c1cc(C[*:1])cc(C[*:2])c1; NMeF = CN[C@@H](Cc1ccccc1)C(=O)O; Nle = CCCC[C@H](N)C(=O)O; Hexanoyl = CCCCCC(=O)*; AEEA = NCCOCCOCC(=O)O; Inp = O=C(O)C1CCNCC1; Ahx = NCCCCCC(=O)O; Sar = CNCC(=O)O
# B1: Ac-Met-[Cys(3MeBn)-Pro-Oic-Thr-Glu-Phe-Cys]-Asp-His-Phe-Arg-Asp-NH2 (peptide)
# peptide: Ac-MCP[Oic]TEFCDHFRD-NH2
# modifications: linker 2-8 via mXylylene
# SMILES: CSCC[C@H](NC(C)=O)C(=O)N[C@H]1CSCc2cccc(c2)CSC[C@@H](C(=O)N[C@@H](CC(=O)O)C(=O)N[C@@H](Cc2c[nH]cn2)C(=O)N[C@@H](Cc2ccccc2)C(=O)N[C@@H](CCCNC(=N)N)C(=O)N[C@@H](CC(=O)O)C(N)=O)NC(=O)[C@H](Cc2ccccc2)NC(=O)[C@H](CCC(=O)O)NC(=O)[C@H]([C@@H](C)O)NC(=O)[C@@H]2C[C@@H]3CCCC[C@@H]3N2C(=O)[C@@H]2CCCN2C1=O
# notes: also called 3BP-3217
# B2: DOTA-Inp-[Cys(3MeBn)-Pro-Pro-Thr-Glu-Phe-Cys]-Asp-His-Nmf-Arg-Asp-NH2 (peptide)
# peptide: {DOTA}-[Inp]CPPTEFCDH[NMeF]RD-NH2
# modifications: linker 2-8 via mXylylene
# SMILES: C[C@@H](O)[C@@H]1NC(=O)[C@@H]2CCCN2C(=O)[C@@H]2CCCN2C(=O)[C@@H](NC(=O)C2CCN(C(=O)CN3CCN(CC(=O)O)CCN(CC(=O)O)CCN(CC(=O)O)CC3)CC2)CSCc2cccc(c2)CSC[C@@H](C(=O)N[C@@H](CC(=O)O)C(=O)N[C@@H](Cc2c[nH]cn2)C(=O)N(C)[C@@H](Cc2ccccc2)C(=O)N[C@@H](CCCNC(=N)N)C(=O)N[C@@H](CC(=O)O)C(N)=O)NC(=O)[C@H](Cc2ccccc2)NC(=O)[C@H](CCC(=O)O)NC1=O
# notes: also called 3BP-3265
# B3: Ac-Met-[Cys(3MeBn)-Oic-Pro-Thr-Glu-Phe-Cys]-Asp-His-Phe-Arg-Asp-NH2 (peptide)
# peptide: Ac-MC[Oic]PTEFCDHFRD-NH2
# modifications: linker 2-8 via mXylylene
# SMILES: CSCC[C@H](NC(C)=O)C(=O)N[C@H]1CSCc2cccc(c2)CSC[C@@H](C(=O)N[C@@H](CC(=O)O)C(=O)N[C@@H](Cc2c[nH]cn2)C(=O)N[C@@H](Cc2ccccc2)C(=O)N[C@@H](CCCNC(=N)N)C(=O)N[C@@H](CC(=O)O)C(N)=O)NC(=O)[C@H](Cc2ccccc2)NC(=O)[C@H](CCC(=O)O)NC(=O)[C@H]([C@@H](C)O)NC(=O)[C@@H]2CCCN2C(=O)[C@@H]2C[C@@H]3CCCC[C@@H]3N2C1=O
# notes: also called 3BP-3216
# B4: DOTA-Ahx-[Cys(3MeBn)-Pro-Pro-Thr-Glu-Phe-Cys]-Asp-His-Nmf-Arg-Asp-NH2 (peptide)
# peptide: {DOTA}-[Ahx]CPPTEFCDH[NMeF]RD-NH2
# modifications: linker 2-8 via mXylylene
# SMILES: C[C@@H](O)[C@@H]1NC(=O)[C@@H]2CCCN2C(=O)[C@@H]2CCCN2C(=O)[C@@H](NC(=O)CCCCCNC(=O)CN2CCN(CC(=O)O)CCN(CC(=O)O)CCN(CC(=O)O)CC2)CSCc2cccc(c2)CSC[C@@H](C(=O)N[C@@H](CC(=O)O)C(=O)N[C@@H](Cc2c[nH]cn2)C(=O)N(C)[C@@H](Cc2ccccc2)C(=O)N[C@@H](CCCNC(=N)N)C(=O)N[C@@H](CC(=O)O)C(N)=O)NC(=O)[C@H](Cc2ccccc2)NC(=O)[C@H](CCC(=O)O)NC1=O
# notes: also called 3BP-3266
# B5: DOTA-O2Oc-[Cys(3MeBn)-Pro-Pro-Thr-Glu-Phe-Cys]-Asp-His-Nmf-Arg-Asp-NH2 (peptide)
# peptide: {DOTA}-[AEEA]CPPTEFCDH[NMeF]RD-NH2
# modifications: linker 2-8 via mXylylene
# SMILES: C[C@@H](O)[C@@H]1NC(=O)[C@@H]2CCCN2C(=O)[C@@H]2CCCN2C(=O)[C@@H](NC(=O)COCCOCCNC(=O)CN2CCN(CC(=O)O)CCN(CC(=O)O)CCN(CC(=O)O)CC2)CSCc2cccc(c2)CSC[C@@H](C(=O)N[C@@H](CC(=O)O)C(=O)N[C@@H](Cc2c[nH]cn2)C(=O)N(C)[C@@H](Cc2ccccc2)C(=O)N[C@@H](CCCNC(=N)N)C(=O)N[C@@H](CC(=O)O)C(N)=O)NC(=O)[C@H](Cc2ccccc2)NC(=O)[C@H](CCC(=O)O)NC1=O
# notes: also called 3BP-3267
# B6: Ac-Met-[Cys(3MeBn)-Pro-Pro-Thr-Glu-Phe-Cys]-Asp-His-Phe-NH2 (peptide)
# peptide: Ac-MCPPTEFCDHF-NH2
# modifications: linker 2-8 via mXylylene
# SMILES: CSCC[C@H](NC(C)=O)C(=O)N[C@H]1CSCc2cccc(c2)CSC[C@@H](C(=O)N[C@@H](CC(=O)O)C(=O)N[C@@H](Cc2c[nH]cn2)C(=O)N[C@@H](Cc2ccccc2)C(N)=O)NC(=O)[C@H](Cc2ccccc2)NC(=O)[C@H](CCC(=O)O)NC(=O)[C@H]([C@@H](C)O)NC(=O)[C@@H]2CCCN2C(=O)[C@@H]2CCCN2C1=O
# notes: also called 3BP-3199
# B7: Hex-[Cys(tMeBn(DOTA-AET))-Nmg-Pro-Thr-Gln-Phe-Cys]-NH2 (peptide)
# peptide: Hexanoyl-C[Sar]PTQFC-NH2
# modifications: linker 1-7 via TBMB(SCH2CH2NH-DOTA)
# SMILES: CCCCCC(=O)N[C@H]1CSCc2cc(CSCCNC(=O)CN3CCN(CC(=O)O)CCN(CC(=O)O)CCN(CC(=O)O)CC3)cc(c2)CSC[C@@H](C(N)=O)NC(=O)[C@H](Cc2ccccc2)NC(=O)[C@H](CCC(N)=O)NC(=O)[C@H]([C@@H](C)O)NC(=O)[C@@H]2CCCN2C(=O)CN(C)C1=O
# notes: also called 3BP-3744
# B8: Hex-[Cys-(tMeBn(H-O2Oc-PP))-Pro-Pro-Thr-Gln-Phe-Cys]-Asp-NH2 (peptide)
# peptide: Hexanoyl-CPPTQFCD-NH2
# modifications: linker 1-7 via tMeBn(H-O2Oc-PP)
# notes: also called 3BP-3967
# B9: Hex-[Cys(tMeBn(DOTA-PP))-Nmg-Pro-Thr-Gln-Phe-Cys]-OH (peptide)
# peptide: Hexanoyl-C[Sar]PTQFC-OH
# modifications: bridge 1-7; not fully specified (residue 1, bridges); printed as Hex-[Cys(tMeBn(DOTA-PP))-Nmg-Pro-Thr-Gln-Phe-Cys]-OH
# notes: also called 3BP-3771
# B10: Hex-[Cys(tMeBn(DOTA-PP))-Pro-Pro-Ala-Ala-Phe-Cys]-Asp-NH2 (peptide)
# peptide: Hexanoyl-CPPAAFCD-NH2
# modifications: linker 1-7 via tMeBn(DOTA-PP)
# SMILES: CCCCCC(=O)N[C@H]1CSCc2cc(cc(CN3CCN(C(=O)CN4CCN(CC(=O)O)CCN(CC(=O)O)CCN(CC(=O)O)CC4)CC3)c2)CSC[C@@H](C(=O)N[C@@H](CC(=O)O)C(N)=O)NC(=O)[C@H](Cc2ccccc2)NC(=O)[C@H](C)NC(=O)[C@H](C)NC(=O)[C@@H]2CCCN2C(=O)[C@@H]2CCCN2C1=O
# notes: also called 3BP-3746
# B11: N4Ac-O2Oc-Nle-[Cys-(3MeBn)-Pro-Pro-Thr-Glu-Phe-Cys]-OH (peptide)
# peptide: N4Ac-[AEEA][Nle]CPPTEFC-OH
# modifications: linker 3-9 via 3MeBn
# notes: also called 3BP-4228
# B12: Hex-[Cys-(tMeBn(DOTA-AET))-Pro-Pro-Thr-Glu-Phe-Cys]-OH (peptide)
# peptide: Hexanoyl-CPPTEFC-OH
# modifications: linker 1-7 via TBMB(SCH2CH2NH-DOTA)
# SMILES: CCCCCC(=O)N[C@H]1CSCc2cc(CSCCNC(=O)CN3CCN(CC(=O)O)CCN(CC(=O)O)CCN(CC(=O)O)CC3)cc(c2)CSC[C@@H](C(=O)O)NC(=O)[C@H](Cc2ccccc2)NC(=O)[C@H](CCC(=O)O)NC(=O)[C@H]([C@@H](C)O)NC(=O)[C@@H]2CCCN2C(=O)[C@@H]2CCCN2C1=O
# notes: also called 3BP-4250
# Target: T1, fibroblast activation protein (FAP) on FAP-expressing human WI-38 fibroblasts (human, UniProt Q12884 1-760)
# T1 construct: also called human FAP
# Assay: competitive FACS, WI-38 cells, vs Cy5 tracer m3; C = pIC50 6.1-7.0
row,Binder,pIC50 Category (FACS)
1,B1,6.1 pIC50 and 7 pIC50
2,B2,6.1 pIC50 and 7 pIC50
3,B3,6.1 pIC50 and 7 pIC50
4,B4,6.1 pIC50 and 7 pIC50
5,B5,6.1 pIC50 and 7 pIC50
6,B6,6.1 pIC50 and 7 pIC50

# Target: Recombinant human FAP (R&D systems, #3715-SE) (human, UniProt Q12884 26-760)
# Assay: cell-based or functional assay
row,Binder,pIC50 Category (Activity)
1,B1,6.1 pIC50 and 7 pIC50
2,B2,6.1 pIC50 and 7 pIC50
3,B3,6.1 pIC50 and 7 pIC50
4,B4,6.1 pIC50 and 7 pIC50
5,B5,6.1 pIC50 and 7 pIC50
6,B6,7.1 pIC50 and 8 pIC50

# Target: T2, Recombinant human FAP (R&D systems, #3715-SE) (human, UniProt Q12884 26-760)
# Assay: cell-based or functional assay
row,Binder,pIC50 Category (Activity) [pIC50]
1,B7,> 8
2,B8,> 8
3,B9,> 8

# Target: T3, human fibroblast activation protein (FAP) on WI-38 fibroblasts (human, UniProt Q12884 1-760)
# T3 construct: FAP-expressing human WI-38 fibroblasts (ECACC)
# Assay: competitive FACS, WI-38 cells, Cy5-labeled peptide as competitor
row,Binder,pIC50 Category (FACS) [pIC50]
1,B7,> 8
2,B10,≤ 6
3,B11,≤ 6
4,B8,> 8
5,B9,> 8
6,B12,> 8

# Target: T2, Recombinant human FAP (R&D systems, …)
# Assay: SPR (Biacore T200), FAP captured on anti-FAP antibody, single cycle kinetics
row,Binder,pKD Category [pKD]
1,B12,> 8

# From patent US20230212549A1 (3B PHARMACEUTICALS, published 2023)
